Reference: US9046519

Legend:
[1] = target: TSHR Arg255 to Asp (human) (UniProt P16473); assay: cell-based or functional assay
[2] = target: human thyrotropin receptor (TSHR), wild type, full length (human) (UniProt P16473); assay: cell-based or functional assay

Cyclic AMP produced (fmol/cell well), hMAb TSHR1 IgG 1 ng/mL (fmol/cell well) [1]: 940
Cyclic AMP produced (fmol/cell well), hMAb TSHR1 IgG 10 ng/mL (fmol/cell well) [1]: 3160
Cyclic AMP produced (fmol/cell well), hMAb TSHR1 IgG 100 ng/mL (fmol/cell well) [1]: 5700
Cyclic AMP produced (fmol/cell well), hMAb TSHR1 IgG 1 µg/mL (fmol/cell well) [1]: 5030
Mutated/Wild type (%), hMAb TSHR1 IgG 1 ng/mL [1]: 19%
Mutated/Wild type (%), hMAb TSHR1 IgG 10 ng/mL [1]: 19%
Mutated/Wild type (%), hMAb TSHR1 IgG 100 ng/mL [1]: 37%
Cyclic AMP produced (fmol/cell well), hMAb TSHR1 IgG 1 ng/mL (fmol/cell well) [2]: 4860
Cyclic AMP produced (fmol/cell well), hMAb TSHR1 IgG 10 ng/mL (fmol/cell well) [2]: 16200
Cyclic AMP produced (fmol/cell well), hMAb TSHR1 IgG 100 ng/mL (fmol/cell well) [2]: 15400
Cyclic AMP produced (fmol/cell well), hMAb TSHR1 IgG 1 µg/mL (fmol/cell well) [2]: 16300
Substance: hMAb TSHR1 IgG (antibody)
